These results are taken from patent US20220331349A1, “TARGETED NANOPARTICLES AND THEIR USES RELATED TO FUNGAL INFECTIONS” (UNIVERSITY OF GEORGIA RESEARCH FOUNDATION, INC., priority 2019, published 2022).

As usually defined, the Kd is the equilibrium constant for the complex coming apart.

Like-named read-outs stand apart in the source and are kept apart here.

The conditions of assay [1]: cited from earlier work.
For another assay, the system named is A. fumigatus. In words: sDectin-2 liposome and DEC2-Rhod binding to A. fumigatus. Further details: species or system Aspergillus fumigatus. The procedure:
C. albicans CAI4 expressing GFP under control of the ADH1 promoter, A. fumigatus A1163, and wild type C. neoformans H99-alpha were grown in Vogel's Minimal Media (VMM)+1% glucose (85)+0.5% BSA or RPMI 1640 media with no red indicator dye (ThermoFisher SKU— 11835-030)+0.5% BSA or YPD (1% yeast extract, 2% peptone, 2% dextrose) in liquid with shaking or on 24 or 96 well polystyrene microtiter plates or on glass microscope chamber slides and incubated at 37° C. for 3 to 36 hr. Plates were pre-coated with poly-L-lysine for A. fumigatus and glass microscope slides were pre-coated with […]. All fungal cell growth was carried out in a BSL2 laboratory. […]
Formalin fixed fungal cells were incubated with liposomes at 23° C. in liposome dilution buffer LDB2 (20 mM HEPES, 10 mM Triethoanolamine, 150 mM NaCl, 10 mM CaCl2, 1 mM beta-mercaptoethanol (BME), 5% BSA pH 8.0), wherein the BME was added fresh. […] The area of liposome binding at 20× magnification was quantified by taking an 8-bit grey-scale copy of the unmodified red fluorescent TIF image into Image J (imagej.nih.gov/ij), using Image>Adjust>Threshold>Apply to capture just the red fluorescent areas illuminated by liposomes, and using Analyze>Measure to place the area data for each image in a file. Six to ten photographic images were generally analyzed and averaged for most area estimates. […]

For assay [2] the following is noted: cited from earlier work. The source holds these as a separate data set.

Turning to “sDectin-1: soluble extracellular C-terminal beta glucan binding domain of Dectin-1 (CLEC7A)”, the EC50 in assay [1] (read-out: EC50s for binding various beta-glucans, strong end of range) was ≥ 2.2e-09 mM; in assay [1] (read-out: EC50s for binding various beta-glucans, weak end of range), ≤ 2 mM. For the same molecule, the Kd in assay [1] (read-out: Kd affinity constants for various beta-glucans, strong end of range) was ≥ 2.2e-09 mM; in assay [1] (read-out: Kd affinity constants for various beta-glucans, weak end of range), ≤ 2.6 mM.

B1: DEC2-Rhod: Rhodamine labeled sDectin-2 protein (conjugate, UniProt Q6EIG7 42-209, looked up)
extracellular domain: TYHFTYGETGKRLSELHSYHSSLTCFSEGTKVPAWGCCPASWKSFGSSCYFISSEEKVWSKSEQNCVEMGAHLVVFNTEAEQNFIVQQLNESFSYFLGLSDPQGNNNWQWIDKTPYEKNVRFWHLGEPNHSAEQCASIVFWKPTGWGWNDVICETRRNSICEMNKIYL
modifications: extracellular domain rhodamine label
notes: Rhodamine labeled sDectin-2 protein
B1: the “binding to A. fumigatus cell wall” value in the assay with A. fumigatus is “did not stain the cell wall”. Besides, in the assay with A. fumigatus (1 hr, 1:200 dilution), the “binding to exopolysaccharide matrix of A. fumigatus” value was “bound strongly to most of the exopolysaccharide matrix surrounding A. fumigatus hyphal cells”.

B2: sDectin-2: soluble mannan-recognition domain of Dectin-2 (CLEC6A) (protein, UniProt Q6EIG7 42-209, looked up)
extracellular domain: B1 extracellular domain
modifications: extracellular domain
As to B2, the EC50 in assay [2] (read-out: Effective Concentration for 50% of binding (EC50), mannan-a-1-2-mannan) is ~2 mM; in assay [2] (read-out: Effective Concentration for 50% of binding (EC50), mannoglycan) it was ~0.15 mM; in assay [2] (read-out: Effective Concentration for 50% of binding (EC50), mannose), ~20 mM.
